Measured values published in publication PMC13342644, “Structural basis for transport and inhibition of nucleotide sugar transport in pathogenic fungi” (Nature Communications, 2026).
Entries after “also recorded” stand apart in the source; their conditions may differ.

Tests used:
[1] = molecular target: T1, C. albicans Vrg4 (CaVrg4) (Candida albicans, UniProt Q5A477); assay: Liposome 3H-GMP transport assay in the presence of nanobodies; format: biochemical
T1 sequence (Q5A477 34-371 limits assumed): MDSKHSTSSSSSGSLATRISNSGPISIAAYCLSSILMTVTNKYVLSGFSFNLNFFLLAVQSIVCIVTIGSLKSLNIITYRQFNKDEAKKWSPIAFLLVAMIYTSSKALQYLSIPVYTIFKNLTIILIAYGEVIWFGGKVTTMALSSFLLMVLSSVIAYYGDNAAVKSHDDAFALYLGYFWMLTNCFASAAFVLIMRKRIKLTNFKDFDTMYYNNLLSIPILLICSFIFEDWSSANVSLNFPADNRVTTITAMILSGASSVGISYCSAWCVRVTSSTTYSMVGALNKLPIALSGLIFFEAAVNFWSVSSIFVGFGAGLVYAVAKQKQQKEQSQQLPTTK
Method: (§1) CaVrg4 was reconstituted into liposomes using the dilution method into preformed lipid vesicles. Chloroform was removed from the lipids using a rotary evaporator to obtain a thin film. The lipids were washed twice in pentane and then resuspended at 10–20 mg ml^−1 in lipid buffer (20 mM HEPES, pH 7.5, 100 mM KCl). These lipid vesicles were frozen and thawed twice in liquid nitrogen, then stored at −80 °C until use. For reconstitution, the lipids were thawed and then extruded first through a 0.8-μm filter and then through a 0.4-μm filter. […] After this time, the protein–lipid mix was diluted rapidly into 65 mL of assay buffer (20 mM HEPES, pH 7.5, 50 mM KCl, 2 mM MgSO4) and the proteoliposomes were collected through centrifugation at >200,000 x g for 2 h. To remove trace detergent, the proteoliposomes were dialysed overnight against a large volume (3 L) of assay buffer. After dialysis, the proteoliposomes were collected and resuspended in assay buffer to a final protein concentration of 0.5 μg μl^−1, and then subjected to two rounds of freeze–thawing in liquid nitrogen before storage at −80 °C. The amount of protein reconstituted into the lipids was quantified by SDS–PAGE and densitometry. […] The final buffer was PBS. For all the assays, the lipid mix consisted of POPE:POPG:Ecoli Polar lipid Extract:EggPC in a 27:7:9:1 ratio.
(§2) All assays were performed at 30 °C.

C. auris Vrg4 = assay: Liposome 3H-GMP transport assay in the presence of nanobodies (specificity control); format: biochemical; settings: Vrg4 from Candida auris
Method: as §1, §2

S. cerevisiae Vrg4 = assay: as above; format: biochemical, Saccharomyces cerevisiae; settings: Vrg4 from S. cerevisiae
[2] = system: yeast strain NDY5 overexpressing C. albicans Vrg4; assay: Hygromycin B-based in vivo viability (growth) assay; format: cell-based, Saccharomyces cerevisiae; settings: NDY5 + C. albicans Vrg4, in the presence of hygromycin B
Method: The yeast was grown in minimal media to select for the plasmids, and the expression of the nanobody was induced with galactose. After overnight galactose induction, the yeast culture was diluted, and growth was monitored over 30 h.
An overnight culture was grown in minus -Leu-Ura medium containing 2% glucose and then diluted 1:10 into medium containing 2% lactate. After 9 h of growth, 2% galactose was added, and the cultures were left overnight. […] The cultures were grown at 30 °C with shaking, and growth was monitored over the next 30 h by measuring the OD.

Molecule	Effect on transport function (uptake of 3H GMP into liposomes), in words [1]	Detectable inhibition, in words (C. auris Vrg4)	Detectable inhibition, in words (S. cerevisiae Vrg4)	Growth / sensitivity to hygromycin B, in words [2]
NB3: inhibitory nanobody specific for C. albicans Vrg4, stabilises the Golgi-facing state (antibody, V domains shown) VH: QVQLVESGGGLVQPGGSLRLSCAASGSISEINVMGWYRQAPGKQRELVARITTGGSTNYADSVKGRFTISRDNAKNTVYLQMNSLKPEDTAVYMCNAHRRVVMEWGPLGYDYWGQGTQVTVSS	full inhibition	neither NB3 nor NB4 showed any detectable inhibition	neither NB3 nor NB4 showed any detectable inhibition	sensitivity of this strain to HyB manifests; also recorded: slow growth phenotype
NB4: inhibitory nanobody specific for C. albicans Vrg4, stabilises the cytoplasmic-facing state (antibody, V domains shown) VH: QVQLVESGGGLVQAGGSLRLSCAASGRTFRSYTLGWFRQAPGKEREFVAAIKWSTDTTYYADSVKGRFTISGDNAKNTVYLQMNSLKPEDTAVYFCAARSLSTVIAGPEIPWPYNSWGQGTQVTVSS	full inhibition	neither NB3 nor NB4 showed any detectable inhibition	neither NB3 nor NB4 showed any detectable inhibition	sensitivity of this strain to HyB manifests; also recorded: slow growth phenotype
